Where two headings read alike, the source gives them in different places.
What was measured:
[1] = Isobutanol tolerance of enzymes (I50); type: biochemical
[2] = Enzyme half-life at 50° C.
[3] = ADH activity, NADH-dependent reduction of isobutyraldehyde; type: biochemical; conditions: substrate isobutyraldehyde
Description: (§1) (J. Mol. Catal. B-Enzym. 2009, 61, 30-35).

[4] = cited from earlier work
[5] = Ethanol tolerance of enzymes (E50); type: biochemical
[6] = ADH activity with acetaldehyde as substrate; type: biochemical
Description: as §1

Thermal tolerance of PDC = type: physicochemical
[7] = Enzyme temperature optimum; type: biochemical; conditions: Table 1
[8] = PDC activity for natural substrate; type: biochemical
Description: as §1

[9] = Screening of TaALDH variants, relative activity under standard conditions (2 mM NAD); type: biochemical
Description: (§2) Colonies of E. coli BL21 (DE3) containing Ta-ALDH library were transferred into 96-deepwell plates (Gainer BioOne) containing Zym5052 autoinduction medium (Protein Expression and Purification, 2005. 41(1): p. 207-234). Cultures were grown over night at 37° C., 1000 rpm. Cells were harvested by centrifugation at 5000 g at 2° C. for 2 min and lysed with B-Per® protein extraction reagent (Thermo Fisher Scentific, Rockford, USA). After incubation for 60 min at 50° C., insoluble cell debris and was removed by centrifugation at 5000 g at 20° C. for 30 min. Supernatants containing variants of TaALDH were tested for relative activity under standard conditions: 2 mM NAD, 1 mM D-glyceraldehyde in 50 mM HEPES (pH 7) at 50° C. After 20 min NADH formation was detected spectrophotometrically at 340 nm.
(§3) The values “relative to wt” are the mU/mL values normalized to the wildtype control value.

[10] = Cofactor acceptance of Ta-ALDH variants (10 mM NAD); type: biochemical
Description: as §2
Change in cofactor acceptance of Ta-ALDH variants was tested under standard assay conditions but with 10 mM NAD. After 20 min NADH formation was detected and compared to relative activity.
as §3

[11] = Determination of specific activity of purified TaALDH variants; type: biochemical; conditions: purified enzyme, 1 mM D-Glyceraldehyde, 50° C., pH 7
Description: The Ta-aldh gene was cloned in pCBR-Chis expression vector as described above. Mutations F34L, F34M, Y399C, S405C and S405N were inserted into Ta-aldh gene by Quickchange PCR as described above. For recombinant expression, E. coli BL21 (DE3) was transformed with pCBR-Ta-aldh-Chis, pCBR-Ta-aldh-f34I-s405c-Chis, pCBR-Ta-aldh-f34m-s405n-Chis or pCBR-Ta-aldh-f34m-y399c-s405n-Chis. Each of the four variants was produced using the following protocol:
Large amounts of a TaALDH-Variant were produced with fed-batch fermentation in a 40 L Biostat Cplus bioreactor (Sartorius Stedim, Goettingen, Germany). Defined media was supplemented with 30 μg/ml kanamycin. After inoculation cells were grown at 30° C. for 24 h and induced with 0.3 mM IPTG. Enzyme expression was performed at 30° C. for 3 h. One fermentation produced 300 g cells (wet weight). Cells were harvested and lysed with Basic-Z Cell Disruptor (Constant Systems, Northants, UK) in loading buffer (200 mM NaCl; 20 mM Imidazol; 2.5 mM MgCl2; 50 mM NaPi, pH 6.2). After heat treatment at 50° C. for 30 min, cell debris and protein aggregates were separated from soluble fraction by centrifugation at 30,000 g at 20° C. for 30 min (Sorvall RC6+, SS-34 rotor, Thermo Scientific).
Soluble fraction of His-tagged TaALDH-Variant was further purified by Ni-NTA chromatography using ÄKTA UPC-900 FPLC-system (GE Healthcare, Freiburg, Germany). Supernatant was loaded on HiTrap FF-column and washed with two column volumes of loading buffer. Highly purified and concentrated TaALDH was fractioned after elution in imidazole buffer (200 mM NaCl; 500 mM imidazol; 50 mM NaPi, pH 6.2). Buffer was changed to 20 mM (NH4)HCO3 with HiPrep 26/10 Desalting column and TaALDH was lyophilized with an Alpha 2-4 LD Plus freeze dryer (Martin Christ GmbH, Osterode am Harz, Germany).
TaALDH activity was determined spectrophotometrically at 50° C. by measuring the rate of cofactor reduction at 340 nm in flat bottom microtiter plates (Grainer BioOne) with a Fluorostar Omega Photometer (BMG Labtech GmbH, Ortenberg, Germany). One unit of activity was defined as reduction of 1 μmol of cofactor per minute.

[12] = ALDH activity assay (glyceraldehyde to glycerate, NAD reduction); type: biochemical; conditions: natural substrate
Description: as §1
ALDH activity: ALDH activity was assayed at 50° C. by oxidizing D-glyceraldeyde to glycerate, whereby the coenzyme NAD is reduced to NADH. Assay mixture contained 50 mM HEPES (pH 7), 2.5 mM MgCl2, 2 mM NAD and 1 mM glyceraldehyde. (FEBS Lett. 2006, 580, 1198-1204)

[13] = Activity in solvents of Ta-ALDH variants (3 % isobutanol); type: biochemical
Description: as §2
Activity in solvents of Ta-ALDH variants was tested under standard assay conditions containing additional solvent. After 20 min NADH formation was detected and compared to relative activity.
as §3

[14] = Table 1, value with literature reference
[15] = Table 2, value with literature reference

B1: ADH: Alcohol dehydrogenase ADH (EC 1.1.1.1), Geobacillus stearothermophilus, Seq ID 18 (protein)
chain: MKAAVVEQFKEPLKIKEVEKPTISYGEVLVRIKACGVCHTDLHAAHGDWPVKPKLPLIPGHEGVGIVEEVGPGVTHLKVGDRVGIPWLYSACGHCDYCLSGQETLCEHQKNAGYSVDGGYAEYCRAAADYVVKIPDNLSFEEAAPIFCAGVTTYKALKVTGAKPGEWVAIYGIGGLGHVAVQYAKAMGLNVVAVDIGDEKLELAKELGADLVVNPLKEDAAKFMKEKVGGVHAAVVTAVSKPAFQSAYNSIRRGGACVLVGLPPEEMPIPIFDTVLNGIKIIGSIVGTRKDLQEALQFAAEGKVKTIIEVQPLEKINEVFDRMLKGQINGRVVLTLEDKLEHHHHHH
modifications: Alcohol dehydrogenase (EC 1.1.1.1), Geobacillus stearothermophilus Protein sequence including C-terminal His-Tag
[1]; 50° C.
  I50: Isobutanol concentration which causes loss of 50% activity: 5 (50° C.) % v/v
[2]
  Half-life, 50° C.: >24 h
[3]
  Activity, 50° C. (ADH for isobutyraldehyde): 83 U/mg
[4]; [14]
  T-Optimum: >60^[3] 50 °C
[4]; [15]
  T-Optimum: >60^[3] ° C.
[5]; 50° C.
  E50: Ethanol concentration which causes loss of 50% activity: 25 (50° C.) % v/v
[6]
  Activity, 50° C. (ADH for acetaldehyde): 210 U/mg

B2: PDC: Pyruvate decarboxylase PDC (EC 4.1.1.1), Zymomonas mobilis, Seq ID 20 (protein)
chain: MSYTVGTYLAERLVQIGLKHHFAVAGDYNLVLLDNLLLNKNMEQVYCCNELNCGFSAEGYARAKGAAAAVVTYSVGALSAFDAIGGAYAENLPVILISGAPNNNDHAAGHVLHHALGKTDYHYQLEMAKNITAAAEAIYTPEEAPAKIDHVIKTALREKKPVYLEIACNIASMPCAAPGPASALFNDEASDEASLNAAVEETLKFIANRDKVAVLVGSKLRAAGAEEAAVKFADALGGAVATMAAAKSFFPEENPHYIGTSWGEVSYPGVEKTMKEADAVIALAPVFNDYSTTGWTDIPDPKKLVLAEPRSVVVNGIRFPSVHLKDYLTRLAQKVSKKTGALDFFKSLNAGELKKAAPADPSAPLVNAEIARQVEALLTPNTTVIAETGDSWFNAQRMKLPNGARVEYEMQWGHIGWSVPAAFGYAVGAPERRNILMVGDGSFQLTAQEVAQMVRLKLPVIIFLINNYGYTIEVMIHDGPYNNIKNWDYAGLMEVFNGNGGYDSGAGKGLKAKTGGELAEAIKVALANTDGPTLIECFIGREDCTEELVKWGKRVAAANSRKPVNKLLSGRPVLGSSHHHHHH
modifications: Pyruvate decarboxylase (EC 4.1.1.1), Zymomonas mobilis Protein sequence including C-terminal His-Tag
[1]; 45° C.
  I50: Isobutanol concentration which causes loss of 50% activity: 8 (45° C.) % v/v
[2]
  Half-life, 50° C.: 22 h
Thermal tolerance of PDC
  thermostable up to: up to 50 °C
[7]
  T-Optimum: 50 50 °C
[5]; 50° C.
  E50: Ethanol concentration which causes loss of 50% activity: 20 (50° C.) % v/v
[8]
  Activity, 50° C.: 64 U/mg

B3: F34M Y399C S405N: Aldehyde Dehydrogenase ALDH (EC 1.2.1.3), Thermoplasma acidophilum, Mutations F34M+Y399C+S405N, Seq ID 10; the engineered ALDH of Tables 1 and 2 (protein)
chain: MDTKLYIDGQWVNSSSGKTVDKYSPVTGQVIGRMEAATRDDVDRAIDAAEDAFWAWNDLGSVERSKIIYRAKELIEKNRAELENIIMEENGKPVKEAKEEVDGVIDQIQYYAEWARKLNGEVVEGTSSHRKIFQYKVPYGIVVALTPWNFPAGMVARKLAPALLTGNTVVLKPSSDTPGSAEWIVRKFVEAGVPKGVLNFITGRGSEIGDYIVEHKKVNLITMTGSTATGQRIMQKASANMAKLILELGGKAPFMVWKDADMDNALKTLLWAKYWNAGQSCIAAERLYVHEDIYDTFMSRFVELSRKLALGDPKNADMGPLINKGALQATSEIVEEAKESGAKILFGGSQPSLSGPYRNGYFFLPTIIGNADQKSKIFQEEIFAPVIGARKISSVEEMCDLANDNKYGLASYLFTKDPNIIFEASERIRFGELYVNMPGPEASQGYHTGFRMTGQAGEGSKYGISEYLKLKNIYVDYSGKPLHINTVRDDLFQSGRPVLGSSHHHHHH
modifications: Aldehyde Dehydrogenase (EC 1.2.1.3), Thermoplasma acidophilum, variant F34M-Y399C-S405N Protein sequence including C-terminal His-Tag
[1]
  isobutanol concentration that already induces adverse effects on activity: 3 % (v/v)
[1]; 50° C.
  I50: Isobutanol concentration which causes loss of 50% activity: 3 (50° C.) % v/v
[2]
  Half-life, 50° C.: 12 h
[9]; 1 mM D-glyceraldehyde, 50° C., pH 7, lysate supernatant
  2 mM NAD (mU/mL): 130.81 mU/mL
[9]; mU/mL values normalized to the wildtype control value
  relative to wt: 45.3
[10]; 10 mM NAD, 1 mM D-glyceraldehyde, 50° C., pH 7
  10 mM NAD (mU/mL): 396.91 mU/mL
[10]; 10 mM NAD, normalized to the wildtype control value
  relative to wt: 33.3
[10]; ratio of activity at 10 mM NAD to 2 mM NAD
  10 mM NAD /2 mM NAD: 0.7
[4]; [14]
  T-Optimum: 63^[2] 50 °C
[4]; [15]
  T-Optimum: 63^[2] ° C.
[11]
  specific activity (U/mg) at 2 mM NAD: 1.2 U/mg
[12]
  Activity, 50° C.: 1 U/mg
[5]; 60° C.
  E50: Ethanol concentration which causes loss of 50% activity: 13 (60° C.) % v/v
[13]; 3 % isobutanol, 2 mM NAD, 50° C., pH 7
  3 % isobutanol, 2 mM NAD (mU/mL): 74.77 mU/mL
[13]; 3 % isobutanol, 2 mM NAD, normalized to the wildtype control value
  relative to wt: 46.9
[13]; stability in 3 % isobutanol relative to wildtype
  Stab. rel to wt: 1

From patent US20150218594A1, “CELL-FREE AND MINIMIZED METABOLIC REACTION CASCADES FOR THE PRODUCTION OF CHEMICALS” (CLARIANT PRODUKTE (DEUTSCHLAND) GMBH, priority 2012, published 2015)
